# What was measured:
# Assay in all cases: cell-based or functional assay
# [1] = target: CH0505.w4.3 Env, Env-pseudotyped virus produced in 293T cells (HIV-1)
# [2] = target: CH0505TF Env, Env-pseudotyped virus produced in 293S GnTI- cells (Man5-enriched) (HIV-1)
# [3] = target: CH0505TF Env, Env-pseudotyped virus produced in 293T cells (HIV-1)
# [4] = target: CH0505TF.G458Y Env, Env-pseudotyped virus produced in 293S GnTI- cells (Man5-enriched) (HIV-1)
# [5] = target: CH0505TF.G458Y Env, Env-pseudotyped virus produced in 293T cells (HIV-1)
# [6] = target: CH0505TF.gly3.197 Env, Env-pseudotyped virus produced in 293S GnTI- cells (Man5-enriched) (HIV-1)
# [7] = target: CH0505TF.gly3.197 Env, Env-pseudotyped virus produced in 293T cells (HIV-1)
# [8] = target: CH0505TF.gly3.276 Env, Env-pseudotyped virus produced in 293S GnTI- cells (Man5-enriched) (HIV-1)
# [9] = target: CH0505TF.gly3.276 Env, Env-pseudotyped virus produced in 293T cells (HIV-1)
# [10] = target: CH0505TF.gly3.461 Env, Env-pseudotyped virus produced in 293S GnTI- cells (Man5-enriched) (HIV-1)
# [11] = target: CH0505TF.gly3.461 Env, Env-pseudotyped virus produced in 293T cells (HIV-1)
# [12] = target: CH0505TF.gly4 Env, Env-pseudotyped virus produced in 293S GnTI- cells (Man5-enriched) (HIV-1)
# [13] = target: CH0505TF.gly4 Env, Env-pseudotyped virus produced in 293T cells (HIV-1)
# [14] = target: HIV-1 426c.DM (N460D/N463D) Env on Env-pseudotyped virus produced in 293T cells (HIV-1)
# [15] = target: HIV-1 426c.DM (N460D/N463D) Env on Env-pseudotyped virus produced in 293s/GnTI-/- cells (Man5-enrichment) (HIV-1)
# [16] = target: HIV-1 426c.SM (N276D) Env on Env-pseudotyped virus produced in 293T cells (HIV-1)
# [17] = target: HIV-1 426c.SM (N276D) Env on Env-pseudotyped virus produced in 293s/GnTI-/- cells (Man5-enrichment) (HIV-1)
# [18] = target: HIV-1 426c.TM (N276D/N460D/N463D) Env on Env-pseudotyped virus produced in 293T cells (HIV-1)
# [19] = target: HIV-1 426c.TM (N276D/N460D/N463D) Env on Env-pseudotyped virus produced in 293s/GnTI-/- cells (Man5-enrichment) (HIV-1)
# [20] = target: HIV-1 Env 426c, Env-pseudotyped virus produced in 293S GnTI- cells (Man5-enriched) (HIV-1 clade C strain 426c)
# [21] = target: HIV-1 Env 426c, Env-pseudotyped virus produced in 293T cells (HIV-1 clade C strain 426c)
# [22] = target: HIV-1 Env 426c.DM (N460D.N463D), Env-pseudotyped virus produced in 293S GnTI- cells (Man5-enriched) (HIV-1 clade C strain 426c)
# [23] = target: HIV-1 Env 426c.DM (N460D.N463D), Env-pseudotyped virus produced in 293T cells (HIV-1 clade C strain 426c)
# [24] = target: HIV-1 Env 426c.SM (N276D), Env-pseudotyped virus produced in 293S GnTI- cells (Man5-enriched) (HIV-1 clade C strain 426c)
# [25] = target: HIV-1 Env 426c.SM (N276D), Env-pseudotyped virus produced in 293T cells (HIV-1 clade C strain 426c)
# [26] = target: HIV-1 Env 426c.TM (N276D.N460D.N463D), Env-pseudotyped virus produced in 293S GnTI- cells (Man5-enriched) (HIV-1 clade C strain 426c)
# [27] = target: HIV-1 Env 426c.TM (N276D.N460D.N463D), Env-pseudotyped virus produced in 293T cells (HIV-1 clade C strain 426c)
# [28] = target: HIV-1 Env 426c.TM4 (S278R.G471S.N460D.N463D), Env-pseudotyped virus produced in 293S GnTI- cells (Man5-enriched) (HIV-1 clade C strain 426c)
# [29] = target: HIV-1 Env 426c.TM4 (S278R.G471S.N460D.N463D), Env-pseudotyped virus produced in 293T cells (HIV-1 clade C strain 426c)
# [30] = target: HIV-1 clade C strain 426c Env on Env-pseudotyped virus produced in 293T cells (HIV-1)
# [31] = target: HIV-1 clade C strain 426c Env on Env-pseudotyped virus produced in 293s/GnTI-/- cells (Man5-enrichment) (HIV-1)
Substance,IC50 (µg/ml) in TZM-bl [1],IC50 (µg/ml) in TZM-bl [2],IC50 (µg/ml) in TZM-bl [3],IC50 (µg/ml) in TZM-bl [4],IC50 (µg/ml) in TZM-bl [5],IC50 (µg/ml) in TZM-bl [6],IC50 (µg/ml) in TZM-bl [7],IC50 (µg/ml) in TZM-bl [8],IC50 (µg/ml) in TZM-bl [9],IC50 (µg/ml) in TZM-bl [10],IC50 (µg/ml) in TZM-bl [11],IC50 (µg/ml) in TZM-bl [12],IC50 (µg/ml) in TZM-bl [13],ID50/IC50 in TZM-bl [14],ID50/IC50 in TZM-bl [15],ID50/IC50 in TZM-bl [16],ID50/IC50 in TZM-bl [17],ID50/IC50 in TZM-bl [18],ID50/IC50 in TZM-bl [19],IC50 (µg/ml) in TZM-bl [20],other results
4E10 (antibody),> 50 µg/mL,10 µg/mL,22 µg/mL,10 µg/mL,8 µg/mL,14 µg/mL,21 µg/mL,13 µg/mL,17 µg/mL,12 µg/mL,16 µg/mL,12.3 µg/mL,14 µg/mL,1 µg/mL,3.7 µg/mL,1.52 µg/mL,3.8 µg/mL,0.98 µg/mL,4 µg/mL,4 µg/mL,IC50 (µg/ml) in TZM-bl [21]: 3.32 µg/mL; IC50 (µg/ml) in TZM-bl [22]: 3.7 µg/mL; IC50 (µg/ml) in TZM-bl [23]: 1 µg/mL; IC50 (µg/ml) in TZM-bl [24]: 3.8 µg/mL; IC50 (µg/ml) in TZM-bl [25]: 1.52 µg/mL; IC50 (µg/ml) in TZM-bl [26]: 4 µg/mL; IC50 (µg/ml) in TZM-bl [27]: 0.98 µg/mL; IC50 (µg/ml) in TZM-bl [28]: 1.6 µg/mL; IC50 (µg/ml) in TZM-bl [29]: 1.66 µg/mL; ID50/IC50 in TZM-bl [30]: 3.32 µg/mL; ID50/IC50 in TZM-bl [31]: 4 µg/mL
10-1074 (antibody),> 25 µg/mL,> 25 µg/mL,> 25 µg/mL,> 25 µg/mL,> 25 µg/mL,> 25 µg/mL,> 25 µg/mL,> 25 µg/mL,> 25 µg/mL,> 25 µg/mL,> 25 µg/mL,> 25 µg/mL,> 25 µg/mL,0.1 µg/mL,0.03 µg/mL,0.12 µg/mL,0.04 µg/mL,0.16 µg/mL,0.03 µg/mL,0.03 µg/mL,IC50 (µg/ml) in TZM-bl [21]: 0.05 µg/mL; IC50 (µg/ml) in TZM-bl [22]: 0.03 µg/mL; IC50 (µg/ml) in TZM-bl [23]: 0.1 µg/mL; IC50 (µg/ml) in TZM-bl [24]: 0.04 µg/mL; IC50 (µg/ml) in TZM-bl [25]: 0.12 µg/mL; IC50 (µg/ml) in TZM-bl [26]: 0.03 µg/mL; IC50 (µg/ml) in TZM-bl [27]: 0.16 µg/mL; IC50 (µg/ml) in TZM-bl [28]: 0.02 µg/mL; IC50 (µg/ml) in TZM-bl [29]: 0.06 µg/mL; ID50/IC50 in TZM-bl [30]: 0.05 µg/mL; ID50/IC50 in TZM-bl [31]: 0.03 µg/mL
2219 (antibody),> 25 µg/mL,> 25 µg/mL,> 25 µg/mL,> 25 µg/mL,> 25 µg/mL,> 25 µg/mL,> 25 µg/mL,> 25 µg/mL,> 25 µg/mL,> 25 µg/mL,> 25 µg/mL,> 25 µg/mL,> 25 µg/mL,> 25 µg/mL,> 25 µg/mL,> 25 µg/mL,> 25 µg/mL,> 25 µg/mL,> 25 µg/mL,> 25 µg/mL,IC50 (µg/ml) in TZM-bl [21]: > 25 µg/mL; IC50 (µg/ml) in TZM-bl [22]: > 25 µg/mL; IC50 (µg/ml) in TZM-bl [23]: > 25 µg/mL; IC50 (µg/ml) in TZM-bl [24]: > 25 µg/mL; IC50 (µg/ml) in TZM-bl [25]: > 25 µg/mL; IC50 (µg/ml) in TZM-bl [26]: > 25 µg/mL; IC50 (µg/ml) in TZM-bl [27]: > 25 µg/mL; IC50 (µg/ml) in TZM-bl [28]: > 25 µg/mL; IC50 (µg/ml) in TZM-bl [29]: > 25 µg/mL; ID50/IC50 in TZM-bl [30]: > 25 µg/mL; ID50/IC50 in TZM-bl [31]: > 25 µg/mL
2557 (antibody),> 25 µg/mL,> 25 µg/mL,> 25 µg/mL,> 25 µg/mL,> 25 µg/mL,> 25 µg/mL,> 25 µg/mL,> 25 µg/mL,> 25 µg/mL,> 25 µg/mL,> 25 µg/mL,> 25 µg/mL,> 25 µg/mL,> 25 µg/mL,> 25 µg/mL,> 25 µg/mL,> 25 µg/mL,> 25 µg/mL,> 25 µg/mL,> 25 µg/mL,IC50 (µg/ml) in TZM-bl [21]: > 25 µg/mL; IC50 (µg/ml) in TZM-bl [22]: > 25 µg/mL; IC50 (µg/ml) in TZM-bl [23]: > 25 µg/mL; IC50 (µg/ml) in TZM-bl [24]: > 25 µg/mL; IC50 (µg/ml) in TZM-bl [25]: > 25 µg/mL; IC50 (µg/ml) in TZM-bl [26]: > 25 µg/mL; IC50 (µg/ml) in TZM-bl [27]: > 25 µg/mL; IC50 (µg/ml) in TZM-bl [28]: > 25 µg/mL; IC50 (µg/ml) in TZM-bl [29]: > 25 µg/mL; ID50/IC50 in TZM-bl [30]: > 25 µg/mL; ID50/IC50 in TZM-bl [31]: > 25 µg/mL
